Results reported in patent US20210403565A1 (BIOATLA, published 2021).

T1: recombinant human CTLA4 extracellular domain (human, UniProt P16410 36-161)
T1 construct: extracellular domain; also called huCTLA-4
T1 sequence (looked up): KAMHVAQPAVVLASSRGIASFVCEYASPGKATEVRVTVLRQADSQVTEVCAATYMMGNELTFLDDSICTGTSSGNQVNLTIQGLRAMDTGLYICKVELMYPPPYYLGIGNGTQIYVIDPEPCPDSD

T2: recombinant cynomolgus CTLA4 extracellular domain (cynomolgus, UniProt G7PL88 36-161)
T2 construct: extracellular domain; also called cynoCTLA-4; cynoCTLA4
T2 sequence: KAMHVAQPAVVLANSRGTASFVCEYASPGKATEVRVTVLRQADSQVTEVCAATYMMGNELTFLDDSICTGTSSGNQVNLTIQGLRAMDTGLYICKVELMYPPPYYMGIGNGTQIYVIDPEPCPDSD

T3: human CTLA4 expressed on the cell surface of CHO cells (human, UniProt P16410 36-223)
T3 construct: whole, on cells; also called CHO-huCTLA4; huCTLA4
T3 sequence (looked up): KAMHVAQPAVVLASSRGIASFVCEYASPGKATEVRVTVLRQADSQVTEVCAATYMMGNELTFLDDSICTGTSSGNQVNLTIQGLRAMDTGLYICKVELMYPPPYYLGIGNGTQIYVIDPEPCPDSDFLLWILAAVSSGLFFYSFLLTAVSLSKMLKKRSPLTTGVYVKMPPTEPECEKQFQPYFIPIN


Legend:
[1] = biological target: T1, recombinant human CTLA4 extracellular …; test: SPR, human CTLA4 ECD immobilised, pH 7.4, run 2
Protocol: (§1) The CTLA4 extracellular domain (human or cynomolgus) was immobilized on the surface of a sensor chip. […] The binding kinetics were calculated using a 1:1 Longmuir model built into the analysis software.

[2] = biological target: T2, recombinant cynomolgus CTLA4 …; test: ELISA, immobilised cynoCTLA-4, pH 6.0, Jun. 27, 2017; ELISA, pH 6.0, Jun. 27, 2017
[3] = biological target: T1, recombinant human CTLA4 extracellular …; test: SPR, human CTLA4 ECD immobilised, pH 7.4, AVG
Protocol: as §1

[4] = biological target: T1, recombinant human CTLA4 extracellular …; test: SPR, human CTLA4 ECD immobilised, pH 7.4, run 1
Protocol: as §1

[5] = biological target: T3, human CTLA4 expressed on the cell …; test: FACS, CHO cells expressing human CTLA4 (CHO-huCTLA-4), pH 6.0, MFI; no unit in the table, unit from the axis Log Antibodies [ng/ml]
Protocol: (§2) The amount of antibodies bound on the cells was quantified using anti-human IgG antibody conjugated to fluorophores. EC₅₀ values at pH 6.0 and 7.4 for binding to cells were calculated using the nonlinear fit (variable slope, four parameters) model built into GraphPad Prism software (version 7.03). The expression levels of human CTLA4 or cynomolgus CTLA4 on the surface of the CHO cells were determined using a BD QuantiBRITE™ PE kit.
At least two independent duplicate FACS experiments were performed for each antibody using each of the cell lines. The binding activities at different concentrations of the antibodies are plotted in these figures.

[6] = biological target: T2, recombinant cynomolgus CTLA4 …; test: ELISA, immobilised cynoCTLA-4, pH 6.0, Jun. 19, 2017; ELISA, pH 6.0, Jun. 19, 2017
[7] = biological target: T1, recombinant human CTLA4 extracellular …; test: ELISA, immobilised huCTLA-4, pH 6.0, Jun. 27, 2017
Protocol: (§3) EC₅₀ values at pH 6.0 for binding to human CTLA4 were calculated using the nonlinear fit model (variable slope, four parameters) of GraphPad Prism version 7.03.

[8] = biological target: T1, recombinant human CTLA4 extracellular …; test: ELISA, immobilised huCTLA-4, pH 6.0, Jun. 29, 2017
Protocol: as §3

[9] = biological target: T1, recombinant human CTLA4 extracellular …; test: SPR, human CTLA4 ECD immobilised, pH 7.4, run 3
Protocol: as §1

[10] = biological target: T1, recombinant human CTLA4 extracellular …; test: SPR, human CTLA4 ECD immobilised, pH 6.0, run 3
Protocol: as §1

[11] = biological target: T2, recombinant cynomolgus CTLA4 …; test: ELISA, immobilised cynoCTLA-4, pH 6.0, mean +/- SD; ELISA, pH 6.0, mean of the two runs
[12] = biological target: T2, recombinant cynomolgus CTLA4 …; test: SPR, cynomolgus CTLA4 ECD immobilised, pH 6.0, equilibrium fit; SPR, pH 6.0
Protocol: as §1
The KD was calculated by plotting the maximum SPR signal at each concentration against the antibody concentration. Experiments were run in triplicate at each pH.

[13] = biological target: T3, human CTLA4 expressed on the cell …; test: FACS competition on CHO-huCTLA4: antibody titrated against a fixed concentration of hB7-2 (hCD86), bound hB7-2 detected, % competition, plateaus about 48 to 57 %; pH 6.0 per the text; unit from the axis CTLA4 Ab concentration Log(ng/mL)
[14] = biological target: T1, recombinant human CTLA4 extracellular …; test: SPR, human CTLA4 ECD immobilised
Protocol: as §1

[15] = biological target: T1, recombinant human CTLA4 extracellular …; test: SPR, human CTLA4 ECD immobilised, pH 6.0, run 2
Protocol: as §1

[16] = biological target: T3, human CTLA4 expressed on the cell …; test: FACS on CHO-huCTLA4 cells, pH 6.0, mean
Protocol: as §2

[17] = biological target: T1, recombinant human CTLA4 extracellular …; test: ELISA, immobilised huCTLA-4, pH 6.0, Jul. 11, 2017
Protocol: as §3

Binder	Kd [1]	EC50 [2]	Kd [3]	koff [3]	kon [3]	Kd [4]	koff [4]	EC50 [5]	EC50 [6]	EC50 [7]	EC50 [8]	Kd [9]	koff [9]	kon [9]	Kd [10]	koff [10]	kon [10]	EC50 [11]	Kd [12]	EC50 [13]	also measured
BA-087-05-19 (antibody, V domains shown, Detected with anti-human IgG and a molecular weight of 146 kDa was used in SPR, so it was tested as a whole IgG; also called BA-087-05-019; BA-087-05-19 (# 6972)) VH: EVQLVESGGGLVQPGGSLRLSCAASGFTFSHYTMHWVRQAPGKGLEWVSFISYDGNNKYYADSVKGRFTISRDNSKNTLYLQMNSLRAEDTAVYYCARTGWLGPFDYWGQGTLVTVSS VL: AIQLTQSPSSLSASVGDRVTITCRASQYVGSSYLAWYLQKPGQSPQLLIYGAFSRATGIPARFSGSGSGTEFTLTISSLQSEDFAVYYCQQDGSSPWTFGQGTKVEIK	0.781 nM	0.0397 µg/mL	1.1 nM	0.000958 s⁻¹	869000 M⁻¹ s⁻¹	1.39 nM	0.00126 s⁻¹	0.247 µg/mL	0.0159 µg/mL	0.00959 µg/mL	0.00659 µg/mL	1.12 nM	0.000943 s⁻¹	844000 M⁻¹ s⁻¹	0.543 nM	0.000598 s⁻¹	1.1e+06 M⁻¹ s⁻¹	0.0276 µg/mL	1.96 nM	0.592 µg/mL	koff [1]: 0.000669 s⁻¹; kon [1]: 857000 M⁻¹ s⁻¹; kon [4]: 906000 M⁻¹ s⁻¹; factor by which the binding activity drops from pH 6.0 to pH 7.4 [14]: ~2 fold; Kd [15]: 0.481 nM; koff [15]: 0.000604 s⁻¹; kon [15]: 1.26e+06 M⁻¹ s⁻¹; EC50 [16]: 0.35 µg/mL; EC50 [17]: 0.00835 µg/mL
BA-087-08-32 (antibody, V domains shown, Detected with anti-human IgG and a molecular weight of 146 kDa was used in SPR, so it was tested as a whole IgG; also called BA-087-08-032; BA-087-08-32 (# 6978)) VH: EVQLVQSGAEVKKPGATVKISCKVSGFTFSHYTMHWIRQSPSRGLEWLGFISYDGNYKYYADSVKGRFTISRDNAKNSLYLQMNSLRAEDTAVYYCARTGWLGPFDYWGQGTLVTVSS VL: EIVMTQSPATLSVSPGERATLSCRASQSVGSSYLAWYQQKPGKAPKLLIYGAFSRATGVPSRFSGSGSGTDFTLTISSLQPEDFATYYCQQDGSSPWTFGQGTKVEIK	14.9 nM	0.292 µg/mL	45.2 nM	0.0166 s⁻¹	519000 M⁻¹ s⁻¹	52.5 nM	0.0284 s⁻¹	0.168 µg/mL	0.259 µg/mL	0.0146 µg/mL	0.00857 µg/mL	68.3 nM	0.0132 s⁻¹	194000 M⁻¹ s⁻¹	0.524 nM	0.00214 s⁻¹	4.08e+06 M⁻¹ s⁻¹	0.276 µg/mL	5.95 nM	0.456 µg/mL	factor by which the binding activity drops from pH 6.0 to pH 7.4 [14]: ~100 fold; Kd [15]: 0.463 nM; koff [15]: 0.00154 s⁻¹; kon [15]: 3.32e+06 M⁻¹ s⁻¹; EC50 [16]: 0.243 µg/mL; EC50 [17]: 0.00617 µg/mL
